Measurements from patent US20210238289A1 (Biogen, published 2021).

The binders below were run against T1, CD64 (FcγRI) (UniProt P12314 16-288, limits assumed) (assay: solution competition SPR (Biacore)).
Experimental: (§1) Binding to Fcγ receptors was analyzed using solution affinity surface plasmon resonance (ref Day E S, Cachero T G, Qian F, Sun Y, Wen D, Pelletier M, Hsu Y M, Whitty A. Selectivity of BAFF/BLyS and APRIL for binding to the TNF family receptors BAFFR/BR3 and BCMA. Biochemistry. 2005 Feb. 15; 44(6):1919-31.) The method utilizes conditions of so-called “mass-transport-limited” binding, in which the initial rate of ligand binding (protein binding to the senor chip) is proportional to the concentration of ligand in solution (ref BIApplications Handbook (1994) Chapter 6: Concentration measurement, pp 6-1-6-10, Pharmacia Biosensor AB). Under these conditions, binding of the soluble analyte (protein flowing over chip surface) to the immobilized protein on the chip is fast compared to the diffusion of the analyte into the dextran matrix on the chip surface. Therefore, the diffusion properties of the analyte and the concentration of analyte in solution flowing over the chip surface determine the rate at which analyte binds to the chip. In this experiment, the concentration of free Fc receptor in solution is determined by the initial rate of binding to a CM5 Biacore chip containing an immobilized IgG1 MAb. Into these Fc receptor solutions were titrated the stability engineered constructs (see Table 10.1 below). […] Initial binding rates were obtained from raw sensorgram data (FIG. 14). […] The results are shown in Table 10.1 and reported as the average of two titrations.

IC50 [µM]	Binder
586	EAG2377 (hu5c8 IgG1 T299N) (antibody) heavy: not shown light: DIVLTQSPATLSVSPGERATISCRASQRVSSSTYSYMHWYQQKPGQPPKLLIKYASNLESGVPARFSGSGSGTDFTLTISSVEPEDFATYYCQHSWEIPPTFGGGTKLEIKRTVAAPSVFIFPPSDEQLKSGTASVVCLLNNFYPREAKVQWKVDNALQSGNSQESVTEQDSKDSTYSLSSTLTLSKADYEKHKVYACEVTHQGLSSPVTKSFNRGEC
5970	EAG2378 (hu5c8 IgG1 T299R) (antibody) heavy: not shown light: DIVLTQSPATLSVSPGERATISCRASQRVSSSTYSYMHWYQQKPGQPPKLLIKYASNLESGVPARFSGSGSGTDFTLTISSVEPEDFATYYCQHSWEIPPTFGGGTKLEIKRTVAAPSVFIFPPSDEQLKSGTASVVCLLNNFYPREAKVQWKVDNALQSGNSQESVTEQDSKDSTYSLSSTLTLSKADYEKHKVYACEVTHQGLSSPVTKSFNRGEC
455	EAG2389 (hu5c8 IgG1 T299Q) (antibody) heavy: not shown light: DIVLTQSPATLSVSPGERATISCRASQRVSSSTYSYMHWYQQKPGQPPKLLIKYASNLESGVPARFSGSGSGTDFTLTISSVEPEDFATYYCQHSWEIPPTFGGGTKLEIKRTVAAPSVFIFPPSDEQLKSGTASVVCLLNNFYPREAKVQWKVDNALQSGNSQESVTEQDSKDSTYSLSSTLTLSKADYEKHKVYACEVTHQGLSSPVTKSFNRGEC
345	EAG2380 (hu5c8 IgG1 T299F) (antibody) heavy: not shown light: DIVLTQSPATLSVSPGERATISCRASQRVSSSTYSYMHWYQQKPGQPPKLLIKYASNLESGVPARFSGSGSGTDFTLTISSVEPEDFATYYCQHSWEIPPTFGGGTKLEIKRTVAAPSVFIFPPSDEQLKSGTASVVCLLNNFYPREAKVQWKVDNALQSGNSQESVTEQDSKDSTYSLSSTLTLSKADYEKHKVYACEVTHQGLSSPVTKSFNRGEC
196	EAG2379 (hu5c8 IgG1 T299E) (antibody) heavy: not shown light: DIVLTQSPATLSVSPGERATISCRASQRVSSSTYSYMHWYQQKPGQPPKLLIKYASNLESGVPARFSGSGSGTDFTLTISSVEPEDFATYYCQHSWEIPPTFGGGTKLEIKRTVAAPSVFIFPPSDEQLKSGTASVVCLLNNFYPREAKVQWKVDNALQSGNSQESVTEQDSKDSTYSLSSTLTLSKADYEKHKVYACEVTHQGLSSPVTKSFNRGEC

Each binder was assayed against T1, CD64 (FcγRI) (assay: solution competition SPR (Biacore); construct titrated into receptor, free receptor read on immobilized IgG1 MAb).
Experimental: as §1

IC50 [µM]	Binder
377	YC401 (hu5c8 IgG4.P S228P, T299A, T307P, D399S, aglycosylated) (antibody, N-terminal Q largely converted to pyroglutamic acid (mass spectrometry), copies: 2 + 2) heavy: QVQLVQSGAEVVKPGASVKLSCKASGYIFTSYYMYWVKQAPGQGLEWIGEINPSNGDTNFNEKFKSKATLTVDKSASTAYMELSSLRSEDTAVYYCTRSDGRNDMDSWGQGTLVTVSSASTKGPSVFPLAPCSRSTSESTAALGCLVKDYFPEPVTVSWNSGALTSGVHTFPAVLQSSGLYSLSSVVTVPSSSLGTKTYTCNVDHKPSNTKVDKRVESKYGPPCPPCPAPEFLGGPSVFLFPPKPKDTLMISRTPEVTCVVVDVSQEDPEVQFNWYVDGVEVHNAKTKPREEQFNSAYRVVSVLPVLHQDWLNGKEYKCKVSNKGLPSSIEKTISKAKGQPREPQVYTLPPSQEEMTKNQVSLTCLVKGFYPSDIAVEWESNGQPENNYKTTPPVLSSDGSFFLYSRLTVDKSRWQEGNVFSCSVMHEALHNHYTQKSLSLSLG light: DIVLTQSPATLSVSPGERATISCRASQRVSSSTYSYMHWYQQKPGQPPKLLIKYASNLESGVPARFSGSGSGTDFTLTISSVEPEDFATYYCQHSWEIPPTFGGGTKLEIKRTVAAPSVFIFPPSDEQLKSGTASVVCLLNNFYPREAKVQWKVDNALQSGNSQESVTEQDSKDSTYSLSSTLTLSKADYEKHKVYACEVTHQGLSSPVTKSFNRGEC
205	IgG1 T299A (aglycosylated hu5c8 IgG1) (antibody, also called IgG1 agly (T299A); agly IgG1) heavy: not shown light: DIVLTQSPATLSVSPGERATISCRASQRVSSSTYSYMHWYQQKPGQPPKLLIKYASNLESGVPARFSGSGSGTDFTLTISSVEPEDFATYYCQHSWEIPPTFGGGTKLEIKRTVAAPSVFIFPPSDEQLKSGTASVVCLLNNFYPREAKVQWKVDNALQSGNSQESVTEQDSKDSTYSLSSTLTLSKADYEKHKVYACEVTHQGLSSPVTKSFNRGEC
2600	EC331 (hu5c8 IgG4.P T299K, T307P, IgG4 CH2/IgG1 CH3 chimera, aglycosylated) (antibody, N-terminal Q largely converted to pyroglutamic acid (mass spectrometry), copies: 2 + 2) heavy: QVQLVQSGAEVVKPGASVKLSCKASGYIFTSYYMYWVKQAPGQGLEWIGEINPSNGDTNFNEKFKSKATLTVDKSASTAYMELSSLRSEDTAVYYCTRSDGRNDMDSWGQGTLVTVSSASTKGPSVFPLAPCSRSTSESTAALGCLVKDYFPEPVTVSWNSGALTSGVHTFPAVLQSSGLYSLSSVVTVPSSSLGTKTYTCNVDHKPSNTKVDKRVESKYGPPCPPCPAPEFLGGPSVFLFPPKPKDTLMISRTPEVTCVVVDVSQEDPEVQFNWYVDGVEVHNAKTKPREEQFNSKYRVVSVLPVLHQDWLNGKEYKCKVSNKGLPSSIEKTISKAKGQPREPQVYTLPPSRDELTKNQVSLTCLVKGFYPSDIAVEWESNGQPENNYKTTPPVLDSDGSFFLYSKLTVDKSRWQQGNVFSCSVMHEALHNHYTQKSLSLSPG light: DIVLTQSPATLSVSPGERATISCRASQRVSSSTYSYMHWYQQKPGQPPKLLIKYASNLESGVPARFSGSGSGTDFTLTISSVEPEDFATYYCQHSWEIPPTFGGGTKLEIKRTVAAPSVFIFPPSDEQLKSGTASVVCLLNNFYPREAKVQWKVDNALQSGNSQESVTEQDSKDSTYSLSSTLTLSKADYEKHKVYACEVTHQGLSSPVTKSFNRGEC
434	YC403 (hu5c8 IgG4.P S228P, T299A, T307P, L309K, D399S, aglycosylated) (antibody, N-terminal Q largely converted to pyroglutamic acid (mass spectrometry), copies: 2 + 2) heavy: QVQLVQSGAEVVKPGASVKLSCKASGYIFTSYYMYWVKQAPGQGLEWIGEINPSNGDTNFNEKFKSKATLTVDKSASTAYMELSSLRSEDTAVYYCTRSDGRNDMDSWGQGTLVTVSSASTKGPSVFPLAPCSRSTSESTAALGCLVKDYFPEPVTVSWNSGALTSGVHTFPAVLQSSGLYSLSSVVTVPSSSLGTKTYTCNVDHKPSNTKVDKRVESKYGPPCPPCPAPEFLGGPSVFLFPPKPKDTLMISRTPEVTCVVVDVSQEDPEVQFNWYVDGVEVHNAKTKPREEQFNSAYRVVSVLPVKHQDWLNGKEYKCKVSNKGLPSSIEKTISKAKGQPREPQVYTLPPSQEEMTKNQVSLTCLVKGFYPSDIAVEWESNGQPENNYKTTPPVLSSDGSFFLYSRLTVDKSRWQEGNVFSCSVMHEALHNHYTQKSLSLSLG light: DIVLTQSPATLSVSPGERATISCRASQRVSSSTYSYMHWYQQKPGQPPKLLIKYASNLESGVPARFSGSGSGTDFTLTISSVEPEDFATYYCQHSWEIPPTFGGGTKLEIKRTVAAPSVFIFPPSDEQLKSGTASVVCLLNNFYPREAKVQWKVDNALQSGNSQESVTEQDSKDSTYSLSSTLTLSKADYEKHKVYACEVTHQGLSSPVTKSFNRGEC
739	IgG4.P T299A (aglycosylated hu5c8 IgG4.P S228P, T299A) (antibody, also called agly IgG4.P; IgG4.P agly (S228P, T299A); copies: 2 + 2) heavy: not shown light: DIVLTQSPATLSVSPGERATISCRASQRVSSSTYSYMHWYQQKPGQPPKLLIKYASNLESGVPARFSGSGSGTDFTLTISSVEPEDFATYYCQHSWEIPPTFGGGTKLEIKRTVAAPSVFIFPPSDEQLKSGTASVVCLLNNFYPREAKVQWKVDNALQSGNSQESVTEQDSKDSTYSLSSTLTLSKADYEKHKVYACEVTHQGLSSPVTKSFNRGEC
